Series [1] deals with tA27-WT (aa 21–84, C71A/C72A, extra N-terminal tryptophan) (vaccinia virus (Western Reserve strain)) (UniProt P11258). Kind of series: SEC-MALS.
The target is the same in series [2]. In words: AUC.
Series [3] deals with the molecule itself. Kind of series: non-reducing SDS-PAGE with immunoblot (disulfide-linked complexes).

What is called stoichiometry N is the number of molecules, sites or subunits per partner or assembly.

On to “tA27-WT (aa 21–84, C71A/C72A, extra N-terminal tryptophan) (from UniProt P11258 21-84) (domain or fragment)”, for which the stoichiometry N in series [1] and in series [2] was 2 each time.

B1: Vaccinia virus A27 protein, full length wild type (natural protein)
chain: MDGTLFPGDDDLAIPATEFFSTKAAKKPEAKREAIVKADEDDNEETLKQRLTNLEKKITNVTTKFEQIEKCCKRNDEVLFRLENHAETLRAAMISLAKKIDVQTGRRPYE
Turning to B1, the “stoichiometry N” value in series [3] came to 2.

The values above are taken from publication PMC3749956 (PLoS Pathogens, 2013).
